# Test results: EP1724347A2
# Experiments:
# protein kinase A [1] = assay: cell-based or functional assay
# protein kinase A [2] = assay: method not stated
# GST-KIX = assay: fluorescence polarization
# [3] = molecular target: GST-hDM2 (residues 1-188) (human) (UniProt Q00987); assay: fluorescence polarization, competition format
# [4] = molecular target: GST-hDM2 (residues 1-188) (human) (UniProt Q00987); assay: fluorescence polarization, 25 nM labeled peptide with varying GST-hDM2, 4°C
# [5] = molecular target: GST-hDM2 (residues 1-188) (human) (UniProt Q00987); assay: 400 nM GST-hDM2 and 10 nM p53AD-Flu in the absence of pZutshi
# GST-hDM2 (residues 1-188) (human), sequence (Q00987 1-188): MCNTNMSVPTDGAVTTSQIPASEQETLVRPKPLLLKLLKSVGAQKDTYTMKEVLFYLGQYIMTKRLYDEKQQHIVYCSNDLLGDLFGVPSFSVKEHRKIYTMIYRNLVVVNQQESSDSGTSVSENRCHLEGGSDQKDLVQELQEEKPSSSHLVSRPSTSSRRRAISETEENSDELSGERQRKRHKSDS
# GST-KIX, sequence (P45481 586-665): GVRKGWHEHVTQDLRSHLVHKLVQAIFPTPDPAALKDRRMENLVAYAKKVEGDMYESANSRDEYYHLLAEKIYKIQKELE
substance,measurement,setting,value
PKI (peptide),IC50 (inhibition of PKA),protein kinase A [1],0.008 µM
same,Kd,protein kinase A [2],0.0312 µM
Phosphorylated KID20 (peptide),Kd,GST-KIX,48 µM
Phosphorylated KID31 (peptide),Kd,GST-KIX,1.2 µM
"p53AD peptide (residues 15-33), not labeled",Kd,[3],1200 µM
p53AD-Flu (peptide),Kd,[4],0.261 µM
same,percent bound,[5],60%
